This note sets out measurements from patent US20260317443 (published 2026).

Sequences and labels used below:
B1: 25B05_H4-L2 (antibody, V domains shown)
VH: EVQLVQSGAEVKKPGASVKVSCKASGYTFTDYFMNWVRQAPGQRLEWMGVINPHNGGTSYSQKFQGRVTLTVDKSSSTAYMELSSLRSEDTAVYYCARRPLGSDYWGQGTTVTVSS
VL: DIVMTQSPSSVSASVGDRVTITCKASQNVGTAVAWYQQKPGKAPKLLIYSASSRYTGVPSRFSGSGSGTDFTLTISSLQPEDFATYYCQQYSSYPLTFGQGTKLEIK
B2: 25B05_H3-L4 (antibody, V domains shown)
VH: EVQLVQSGAEVKKPGASVKVSCKASGYTFTDYFMNWVRQAPGQRLEWMGVINPHNGGTSYSQKFQGRVTITVDKSSSTAYMELSSLRSEDTAVYYCARRPLGSDYWGQGTTVTVSS
VL: DIVMTQSPSSVSASVGDRVTITCKASQNVGTAVAWYQQKPGKAPKLLIYSASSRYTEVPDRFSGSGSGTDFTLTISSLQPEDFATYYCQQYSSYPLTFGQGTKLEIK
B3: 25B05_H2-L2 (antibody, V domains shown)
VH: QVQLVQSGAEVKKPGASVKVSCKASGYTFTDYFMNWVRQAPGQRLEWMGVINPHNGGTSYSQKFQGRVTITVDKSSSTAYMELSSLRSEDTAVYYCARRPLGSDYWGQGTTVTVSS
VL: DIVMTQSPSSVSASVGDRVTITCKASQNVGTAVAWYQQKPGKAPKLLIYSASSRYTGVPSRFSGSGSGTDFTLTISSLQPEDFATYYCQQYSSYPLTFGQGTKLEIK
B4: 25B05_H4-L3 (antibody, V domains shown)
VH: EVQLVQSGAEVKKPGASVKVSCKASGYTFTDYFMNWVRQAPGQRLEWMGVINPHNGGTSYSQKFQGRVTLTVDKSSSTAYMELSSLRSEDTAVYYCARRPLGSDYWGQGTTVTVSS
VL: DIQMTQSPSSVSASVGDRVTITCKASQNVGTAVAWYQQKPGKAPKLLIYSASSRYTEVPDRFSGSGSGTDFTLTISSLQPEDFATYYCQQYSSYPLTFGQGTKLEIK
B5: 25B05_H3-L2 (antibody, V domains shown)
VH: EVQLVQSGAEVKKPGASVKVSCKASGYTFTDYFMNWVRQAPGQRLEWMGVINPHNGGTSYSQKFQGRVTITVDKSSSTAYMELSSLRSEDTAVYYCARRPLGSDYWGQGTTVTVSS
VL: DIVMTQSPSSVSASVGDRVTITCKASQNVGTAVAWYQQKPGKAPKLLIYSASSRYTGVPSRFSGSGSGTDFTLTISSLQPEDFATYYCQQYSSYPLTFGQGTKLEIK
B6: 25B05_H2-L3 (antibody, V domains shown)
VH: QVQLVQSGAEVKKPGASVKVSCKASGYTFTDYFMNWVRQAPGQRLEWMGVINPHNGGTSYSQKFQGRVTITVDKSSSTAYMELSSLRSEDTAVYYCARRPLGSDYWGQGTTVTVSS
VL: DIQMTQSPSSVSASVGDRVTITCKASQNVGTAVAWYQQKPGKAPKLLIYSASSRYTEVPDRFSGSGSGTDFTLTISSLQPEDFATYYCQQYSSYPLTFGQGTKLEIK
B7: 33D03_H3-L3 (antibody, V domains shown)
VH: QVQLVQSGAEVKKPGASVKVSCKASGYTFTDYYLNWVRQAPGQRLEWMGIINPYNGGTNYSQKFQGRVTITVDKSSSTAYMELSSLRSEDTAVYYCASEGLRTWFTYWGQGTLVTVSS
VL: DIVMTQSPDSLAVSLGERATINCKSSQSLSNSGNQKIYLAWYQQKPGQPPKLLIYGASSRESGVPDRFSGSGSEIDFTLTISSLQAEDVAVYYCQNDHSHPFTFGQGTKLEIK
B8: 33D03_H1-L3 (antibody, V domains shown)
VH: QVQLVQSGAEVKKPGASVKVSCKASGYTFTDYYLNWVRQAPGQRLEWMGIINPYNGGTNYSQKFQGRVTITRDTSASTAYMELSSLRSEDTAVYYCASEGLRTWFTYWGQGTLVTVSS
VL: DIVMTQSPDSLAVSLGERATINCKSSQSLSNSGNQKIYLAWYQQKPGQPPKLLIYGASSRESGVPDRFSGSGSEIDFTLTISSLQAEDVAVYYCQNDHSHPFTFGQGTKLEIK
B9: 33D03_H4-L3 (antibody, V domains shown)
VH: QVQLVQSGAEVKKPGASVKVSCKASGYTFTDYYLNWVRQAPGQRLEWMGIINPYNGGTNYNQRFKGRVTITVDKSSSTAYMELSSLRSEDTAVYYCASEGLRTWFTYWGQGTLVTVSS
VL: DIVMTQSPDSLAVSLGERATINCKSSQSLSNSGNQKIYLAWYQQKPGQPPKLLIYGASSRESGVPDRFSGSGSEIDFTLTISSLQAEDVAVYYCQNDHSHPFTFGQGTKLEIK
B10: 33D03_H2-L2 (antibody, V domains shown)
VH: QVQLVQSGAEVKKPGASVKVSCKASGYTFTDYYLNWVRQAPGQRLEWMGIINPYNGGTNYNQRFKGRVTITRDTSASTAYMELSSLRSEDTAVYYCASEGLRTWFTYWGQGTLVTVSS
VL: DIVMTQSPDSLAVSLGERATISCKSSQSLSNSGNQKIYLAWYQQKPGQPPKLLIYGASSRESGVPDRFSGSGSGTDFTLTISSLQAEDVAVYYCQNDHSHPFTFGQGTKLEIK
B11: 33D03_H4-L4 (antibody, V domains shown)
VH: QVQLVQSGAEVKKPGASVKVSCKASGYTFTDYYLNWVRQAPGQRLEWMGIINPYNGGTNYNQRFKGRVTITVDKSSSTAYMELSSLRSEDTAVYYCASEGLRTWFTYWGQGTLVTVSS
VL: DIVMTQSPDSLAVSLGERATISCKSSQSLSNSGNQKIYLAWYQQKPGQPPKLLIYGASSRESGVPDRFSGSGSEIDFTLTISSLQAEDVAVYYCQNDHSHPFTFGQGTKLEIK
B12: 33D03_H2-L4 (antibody, V domains shown)
VH: QVQLVQSGAEVKKPGASVKVSCKASGYTFTDYYLNWVRQAPGQRLEWMGIINPYNGGTNYNQRFKGRVTITRDTSASTAYMELSSLRSEDTAVYYCASEGLRTWFTYWGQGTLVTVSS
VL: DIVMTQSPDSLAVSLGERATISCKSSQSLSNSGNQKIYLAWYQQKPGQPPKLLIYGASSRESGVPDRFSGSGSEIDFTLTISSLQAEDVAVYYCQNDHSHPFTFGQGTKLEIK
B13: 33D03_H2-L1 (antibody, V domains shown)
VH: QVQLVQSGAEVKKPGASVKVSCKASGYTFTDYYLNWVRQAPGQRLEWMGIINPYNGGTNYNQRFKGRVTITRDTSASTAYMELSSLRSEDTAVYYCASEGLRTWFTYWGQGTLVTVSS
VL: DIVMTQSPDSLAVSLGERATINCKSSQSLSNSGNQKIYLAWYQQKPGQPPKLLIYGASSRESGVPDRFSGSGSGTDFTLTISSLQAEDVAVYYCQNDHSHPFTFGQGTKLEIK
B14: 33D03_H2-L3 (antibody, V domains shown)
VH: QVQLVQSGAEVKKPGASVKVSCKASGYTFTDYYLNWVRQAPGQRLEWMGIINPYNGGTNYNQRFKGRVTITRDTSASTAYMELSSLRSEDTAVYYCASEGLRTWFTYWGQGTLVTVSS
VL: DIVMTQSPDSLAVSLGERATINCKSSQSLSNSGNQKIYLAWYQQKPGQPPKLLIYGASSRESGVPDRFSGSGSEIDFTLTISSLQAEDVAVYYCQNDHSHPFTFGQGTKLEIK
B15: 33D03_H4-L2 (antibody, V domains shown)
VH: QVQLVQSGAEVKKPGASVKVSCKASGYTFTDYYLNWVRQAPGQRLEWMGIINPYNGGTNYNQRFKGRVTITVDKSSSTAYMELSSLRSEDTAVYYCASEGLRTWFTYWGQGTLVTVSS
VL: DIVMTQSPDSLAVSLGERATISCKSSQSLSNSGNQKIYLAWYQQKPGQPPKLLIYGASSRESGVPDRFSGSGSGTDFTLTISSLQAEDVAVYYCQNDHSHPFTFGQGTKLEIK

Chain of human VWF (human) (P04275 whole entry): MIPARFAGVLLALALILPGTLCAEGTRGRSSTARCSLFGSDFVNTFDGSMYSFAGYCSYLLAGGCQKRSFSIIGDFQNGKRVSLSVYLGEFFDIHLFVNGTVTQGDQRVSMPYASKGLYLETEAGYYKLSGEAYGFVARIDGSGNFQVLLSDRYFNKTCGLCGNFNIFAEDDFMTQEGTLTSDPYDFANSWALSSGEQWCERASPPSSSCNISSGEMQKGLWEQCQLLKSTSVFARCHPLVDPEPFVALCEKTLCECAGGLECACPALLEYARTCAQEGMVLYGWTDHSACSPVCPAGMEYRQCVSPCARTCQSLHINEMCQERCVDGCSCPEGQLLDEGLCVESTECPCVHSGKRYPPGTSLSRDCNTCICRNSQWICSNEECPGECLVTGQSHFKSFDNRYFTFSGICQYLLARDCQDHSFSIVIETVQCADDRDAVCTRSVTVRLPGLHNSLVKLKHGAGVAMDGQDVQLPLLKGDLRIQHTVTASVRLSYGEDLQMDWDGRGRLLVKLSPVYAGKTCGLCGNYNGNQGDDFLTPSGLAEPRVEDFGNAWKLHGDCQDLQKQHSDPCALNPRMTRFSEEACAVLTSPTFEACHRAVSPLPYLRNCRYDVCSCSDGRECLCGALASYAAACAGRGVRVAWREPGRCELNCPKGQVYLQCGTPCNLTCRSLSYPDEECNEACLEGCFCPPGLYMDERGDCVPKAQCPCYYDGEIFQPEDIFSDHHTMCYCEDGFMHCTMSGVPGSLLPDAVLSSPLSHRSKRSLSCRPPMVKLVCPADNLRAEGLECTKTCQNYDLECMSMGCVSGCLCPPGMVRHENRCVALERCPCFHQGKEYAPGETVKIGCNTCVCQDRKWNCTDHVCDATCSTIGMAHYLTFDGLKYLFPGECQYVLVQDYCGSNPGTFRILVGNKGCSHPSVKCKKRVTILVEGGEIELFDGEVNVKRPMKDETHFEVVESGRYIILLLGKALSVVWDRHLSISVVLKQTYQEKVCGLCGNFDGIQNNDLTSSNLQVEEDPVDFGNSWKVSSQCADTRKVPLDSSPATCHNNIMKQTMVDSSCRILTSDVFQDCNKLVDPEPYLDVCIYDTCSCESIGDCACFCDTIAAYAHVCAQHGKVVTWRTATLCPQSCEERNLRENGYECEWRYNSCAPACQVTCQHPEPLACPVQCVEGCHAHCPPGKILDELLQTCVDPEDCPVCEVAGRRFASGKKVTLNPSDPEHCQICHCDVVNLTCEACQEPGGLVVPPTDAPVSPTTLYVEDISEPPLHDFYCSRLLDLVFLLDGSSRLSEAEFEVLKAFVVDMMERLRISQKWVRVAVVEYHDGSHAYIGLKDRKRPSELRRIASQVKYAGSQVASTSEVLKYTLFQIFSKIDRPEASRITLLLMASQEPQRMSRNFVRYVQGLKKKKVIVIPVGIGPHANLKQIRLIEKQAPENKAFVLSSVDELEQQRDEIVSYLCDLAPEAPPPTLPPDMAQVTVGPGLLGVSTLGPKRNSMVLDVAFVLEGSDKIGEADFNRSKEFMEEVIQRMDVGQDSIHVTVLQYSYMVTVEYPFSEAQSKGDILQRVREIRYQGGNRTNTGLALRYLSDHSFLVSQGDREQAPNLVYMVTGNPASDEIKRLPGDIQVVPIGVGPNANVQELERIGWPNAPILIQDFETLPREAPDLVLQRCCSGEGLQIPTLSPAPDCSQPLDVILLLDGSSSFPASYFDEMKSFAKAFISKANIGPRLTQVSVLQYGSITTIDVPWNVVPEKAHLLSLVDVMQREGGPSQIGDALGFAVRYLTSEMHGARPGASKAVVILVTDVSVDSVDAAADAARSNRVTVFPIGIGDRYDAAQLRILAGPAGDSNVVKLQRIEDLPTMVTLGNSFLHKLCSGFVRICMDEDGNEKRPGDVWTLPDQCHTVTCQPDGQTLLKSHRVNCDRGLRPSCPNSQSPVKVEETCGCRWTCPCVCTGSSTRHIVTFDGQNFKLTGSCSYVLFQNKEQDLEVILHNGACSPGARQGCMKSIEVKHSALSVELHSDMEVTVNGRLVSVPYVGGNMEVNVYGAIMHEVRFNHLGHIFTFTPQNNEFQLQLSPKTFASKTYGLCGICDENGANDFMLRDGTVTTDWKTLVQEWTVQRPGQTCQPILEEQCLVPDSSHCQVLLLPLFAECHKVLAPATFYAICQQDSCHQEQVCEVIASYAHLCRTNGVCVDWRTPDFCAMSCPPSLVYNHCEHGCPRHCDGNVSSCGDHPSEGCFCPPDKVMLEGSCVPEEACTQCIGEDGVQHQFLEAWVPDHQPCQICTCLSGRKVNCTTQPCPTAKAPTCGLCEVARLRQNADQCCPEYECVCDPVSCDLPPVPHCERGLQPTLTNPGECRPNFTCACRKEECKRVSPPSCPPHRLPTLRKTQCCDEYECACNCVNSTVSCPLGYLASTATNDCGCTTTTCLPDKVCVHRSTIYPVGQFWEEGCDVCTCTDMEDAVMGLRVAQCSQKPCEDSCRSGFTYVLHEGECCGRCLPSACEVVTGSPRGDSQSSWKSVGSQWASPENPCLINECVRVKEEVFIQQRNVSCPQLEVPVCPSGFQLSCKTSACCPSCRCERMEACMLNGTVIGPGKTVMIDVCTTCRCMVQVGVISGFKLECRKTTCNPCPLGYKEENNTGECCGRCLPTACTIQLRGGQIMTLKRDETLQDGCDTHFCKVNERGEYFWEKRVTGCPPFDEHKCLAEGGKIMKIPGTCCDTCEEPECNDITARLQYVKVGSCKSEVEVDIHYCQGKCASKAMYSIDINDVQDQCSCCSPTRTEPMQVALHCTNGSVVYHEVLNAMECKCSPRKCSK

The assay has as its target human VWF (human). Description: ELISA. (In an ELISA, binding on a coated surface is turned into a signal by an enzyme label.)
What is called EC50 is the concentration giving half of the maximal effect. A high value points to lower potency in that assay. In the case of B1, the EC50 turned out to be 0.0357 µg/mL.

In turn, B2 had an EC50 of 0.0379 µg/mL.

The molecule B3 yielded a 50% effective concentration (EC50) of 0.0564 µg/mL.

For the molecule B4, the midpoint of the response, the EC50, lay at 0.0271 µg/mL.

Molecule B5 displayed an EC50 of 0.0516 µg/mL.

On to B6, for which the midpoint of the response, the EC50, lay at 0.0416 µg/mL.

Take B7: the EC50 was 0.0483 µg/mL.

On to B8, for which the response was half-maximal at 0.0597 µg/mL (EC50).

In the case of B9, the midpoint of the response, the EC50, lay at 0.0371 µg/mL.

Molecule B10 had a concentration for a half-maximal effect (EC50) of 0.0394 µg/mL.

B11 had a concentration for a half-maximal effect (EC50) of 0.0365 µg/mL.

B12 gave a concentration giving a half-maximal response (EC50) of 0.0381 µg/mL.

Turning to B13, the EC50 came to 0.0373 µg/mL.

B14: the half-maximal effective concentration (EC50) came to 0.0371 µg/mL.

B15 returned a concentration for a half-maximal effect (EC50) of 0.0354 µg/mL.
